Test results reported in the RNAGym collection of RNA variant scans (doi:10.1093/nar/gkz1192).

B1: CPEB3 Ribozyme (parent)
chain: UAACAGGGGGCCACAGCAGAAGCGUUCACGUCGCAGCCCCUGUCAGAUUCUGGUGAAUCUGCGAAUUCUGCUGUAUAUCUC

Variants of: B1
Experiment: self-cleavage, relative activity (ratio to wild type); higher = more cleavage; in vitro, sequencing
Method in brief: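 Libraries of CPEB3 self-cleaving ribozyme mutants came from rounds of error-prone PCR and carried barcodes, which DNA sequencing matched to variants. In vitro transcription used T7 RNA polymerase at 37°C for 5 hours, with a further 15 min in DNase I before EDTA stopped the reaction; the ribozymes cleaved during both steps. The RNA was reverse transcribed with template switching and sequenced on Illumina. Relative activity is the cleaved/total read fraction of a variant divided by that of the unmutated ribozyme, averaged over three batches with at least 5 reads.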

Row | Variant | self-cleavage
1 | GAACAGGGGGCCACAGCAGAAGCGUUCACGUCGCAGCCCCUGUCAGAUUCUGCUGAAUCUGCGAAUUCUGCUGUAUAUCUC | 0.89
2 | GAACAGGGGGCCACAGCAGAAGCGUUCACGUCGCAGCCCCUGUCAGAUUCUGGUGAAUCUGCGAAUUCUGCUGUAUACCUC | 0.82
3 | GAACAGGGGGCCACAGCAGAAGCGCUCACGUCGCAGCCCCUGUCAGAUUCUGGUGAAUCUGCGAAUUCUGCUGUAUAUCUC | 0.13
4 | GAACAGGGGGCCACAGCAGCAGCGUUCACGUCGCAGCCCCUGUCAGAUUCUGGUGAAUCUGCGAAUUCUGCUGUAUAUCUC | 0.55
5 | GAACAGGGGGCCACAGCAGAAGCGUUCACGUCGCAGCCCCUGUCAGAUUCUGGUGAAUCUGCGAAUUCUGCUGCAUAUCUC | 1.13
6 | GAACAGGGGGCCACAGCAGAAGCGUUCACGUCGCAGCCCCUGUCAGGUUCUGGUGAAUCUGCGAAUUCUGCUGUAUAUCUC | 1.16
7 | GAACAGGGGGCCACGGCAGAAGCGUUCACGUCGCAGCCCCUGUCAGAUUCUGGUGAAUCUGCGAAUUCUGCUGUAUAUCUC | 0.84
8 | GAACAGGGGGCCACAGCAGAAGUGUUCACGUCGCAGCCCCUGUCAGAUUCUGGUGAAUCUGCGAAUUCUGCUGUAUAUCUC | 0.49
9 | CAACAGGGGGCCACAGCAGAAGCGUUCACGUCGCAGCCCCUGUCAGAUUCUGGUGAAUCUGCGAACUCUGCUGUAUAUCUC | 0.39
10 | CAACAGGGGGCCACAGCAGAAGCGUUCACGUCGCAGCCCCUGUCAGAUUCUGGUGAACCUGCGAAUUCUGCUGUAUAUCUC | 0.63
11 | CAACAGGGGGCCACAGCAGAAGCGUUCACGUCGCAGCCCCUGUCAGAUUCUGGUGAAACUGCGAAUUCUGCUGUAUAUCUC | 0.46
12 | GAACAGGGGGCCACAGCAGAAGCGUUCACGUCGCAGCCCCUGUCAGAUUCUGGUGAAUCUGCGAAUUCAGCUGUAUAUCUC | 0.65
13 | GAACAGGGGGCCACAGCAGAAGCGUUCACGUCGCAGCACCUGUCAGAUUCUGGUGAAUCUGCGAAUUCUGCUGUAUAUCUC | 0.48
14 | UCACGGGGGGCCACAGCAGAAGCGUUCACGUCGCAGCCCCUGUCAGAUUCUGGUGAAUCUGCGAAUUCUGCUGUAUAUCUC | 0.86
15 | GAACAGGGGGCCGCAGCAGAAGCGUUCACGUCGCAGCCCCUGUCAGAUUCUGGUGAAUCUGCGAAUUCUGCUGUAUAUCUC | 0.66
16 | GGACAGGGGGCCACAGCAGAAGCGUUCACGUCGCAGCCCCUGUCAGAUUCUGGUGAAUCUGCGAAUUCUGCUGUAUAUCUC | 0.95
17 | CAACAGGGGGCCACAGCAGAAGCGUUCACGUCGCAGCCCCUGUCAGAUUCUGGUGAAUCUGCGAAUUCUGCUGUAUACCUC | 0.8
18 | CAACAGGGGGCCACAGCAGAAGCGUUCACGUCGCAGCCCCUGUCAGAUUCUGGUGAAUCUGCGAAUUCUGCUGUAUAACUC | 1.11
19 | CAACAGGGGGCCACAGCAGAAGCGUUCACGUCGCAGCCCCUGUCAGAUUCUGGUGAAUCUGCGAAUUCUGCUGUAUAGCUC | 0.94
20 | UCACAGGGGGCCACAGCAGAAGUGUUCACGUCGCAGCCCCUGUCAGAUUCUGGUGAAUCUGCGAAUUCUGCUGUAUAUCUC | 0.25
21 | CAACAGGGGGCCACAGCAGAAGCGUUCACGUCGCAGCCCCUGUCAGAUUCUGGUGAAUCCGCGAAUUCUGCUGUAUAUCUC | 0.39
22 | CAACAGGGGGCCACAGCAGAAGCGUUCACGUCGCAGCCCCUGUCAGAUUCUGGUGAAUCAGCGAAUUCUGCUGUAUAUCUC | 0.42
23 | GAACAGGGGGCCACAGCAGAAGCGUUCACGUCGCAGCCCCUGUCAGAUUCUGGUGAAUCUGCGAAUUCUGCCGUAUAUCUC | 1

Row | Variant | self-cleavage
24 | GAACAGGGGGCCACAGCAGAAGCGUUCACGUCGCAGCCCCUGUCAGAUUCUGGUGAAUCUGCGAAUUCUGCAGUAUAUCUC | 0.71
25 | GAACUGGGGGCCACAGCAGAAGCGUUCACGUCGCAGCCCCUGUCAGAUUCUGGUGAAUCUGCGAAUUCUGCUGUAUAUCUC | 0.98
26 | GAACAGGGGGCCACAGCAGAAGCGUUCACGUCGCAGCCCCUGUCAGAUUCUGGUGACUCUGCGAAUUCUGCUGUAUAUCUC | 0.37
27 | GAACAGGGGGCCACAGCAGAAGCGUUCGCGUCGCAGCCCCUGUCAGAUUCUGGUGAAUCUGCGAAUUCUGCUGUAUAUCUC | 0.55
28 | GAACAGGGGGCCACAGCAGAAGCGUUCCCGUCGCAGCCCCUGUCAGAUUCUGGUGAAUCUGCGAAUUCUGCUGUAUAUCUC | 0.6
29 | GAACAGGGGGCCACAGCAGAAGCGUUCACGUCGCAGCCCCUGUCAGAUUCUGGUGAAUCUGCUAAUUCUGCUGUAUAUCUC | 0.81
30 | UCACAGGGGGCCACAGCAGAAGCGUUCACGUCGCAGCCCCUGUCAGAUUCUGGUGAAUCUGCGAAUUCUGCUGUAUGUCUC | 1.01
31 | CAACAGGGGGCCACAGCAGAAGCGUUCACGUCGCAGCCCCUGUCAGAUUCUGGUGAAUCUGCGAAUUCUGCUGUAUAUCAC | 0.82
32 | CAACAGGGGGCCACAGCAGAAGCGUUCACGUCGCAGCCCCUGUCAGAUUCUGGUGAAUCUGCGAAUUCUGCUGUAUAUCCC | 1
33 | GAACAGGGGGCCACAGCGGAAGCGUUCACGUCGCAGCCCCUGUCAGAUUCUGGUGAAUCUGCGAAUUCUGCUGUAUAUCUC | 0.61
34 | GAACAGGGGGCCACAGCAGAAGCGUUAACGUCGCAGCCCCUGUCAGAUUCUGGUGAAUCUGCGAAUUCUGCUGUAUAUCUC | 0.43
35 | UCACAGGGGGCCACAGCAGAAGCGUUCACGUCGCAGCCCCUGUCAGAUUCUGGUGAAUCUGCGAGUUCUGCUGUAUAUCUC | 0.46
36 | UCACAGGGGGCCACUGCAGAAGCGUUCACGUCGCAGCCCCUGUCAGAUUCUGGUGAAUCUGCGAAUUCUGCUGUAUAUCUC | 0.5
37 | UCACAGGGGGCCACGGCAGAAGCGUUCACGUCGCAGCCCCUGUCAGAUUCUGGUGAAUCUGCGAAUUCUGCUGUAUAUCUC | 0.69
38 | GAACAGGGGGCCACAGCAGAAGCGUUCACGUCGCAGCCCCAGUCAGAUUCUGGUGAAUCUGCGAAUUCUGCUGUAUAUCUC | 0.3
39 | GAACAGGGGGCCACAGCAGAAGCGUUCACGUCGCAGCCCCCGUCAGAUUCUGGUGAAUCUGCGAAUUCUGCUGUAUAUCUC | 1.01
40 | UCACAGGGGGCCACAGCAGAAGCGUUCACGUCGCAGCCCCUGUCAGAUUCUGGUGAAUCUGCGUAUUCUGCUGUAUAUCUC | 0.21
41 | UCACAGGGGGCCACAGCAGAAGCGUUCACGUCGCAGCCCCUGUCAGAUUCUGGUGAAUCUGCGGAUUCUGCUGUAUAUCUC | 0.74
42 | UCACAGGGGGCCGCAGCAGAAGCGUUCACGUCGCAGCCCCUGUCAGAUUCUGGUGAAUCUGCGAAUUCUGCUGUAUAUCUC | 0.49
43 | GAACAGGGGGCCACAGCAGAAGCGUUCACGUCGCAGCCCCUGUCAGAUUCUGGUGAAUCUGCGCAUUCUGCUGUAUAUCUC | 0.26
44 | GAACAGGGGGCCACAGCAGAAGCGUUCACGUCGCAGCCCCUGUCAGAUUCUGGUGAAUCUGCGAAUUCUGCUGUAUAUCUC | 1.01
45 | CAACAGGGGGCCACAGCAGAAGCGUUCACGUCGCAGCCCCUGUCAGAUUCUGGUGAAUCUGCGAAUUCUGCUGGAUAUCUC | 1.19
46 | CAACAGGGGGCCACAGCAGAAGCGUUCACGUCGCAGCCCCUGUCAGAUUCUGGUGAAUCUGCGAAUUCUGCUGCAUAUCUC | 1.21

Row | Variant | self-cleavage
47 | CAACAGGGGGCCACAGCAGAAGCGUUCACGUCGCAGCCCCUGUCAGAUUCUGGUGAAUCUGCGAAUUCUGCUGAAUAUCUC | 1.21
48 | GAACAGGGGGCCACAGCAGAAGCGUUCACGUCGCAGCCCCUGUCAGAUUCUGGUGGAUCUGCGAAUUCUGCUGUAUAUCUC | 0.92
49 | GAACAGGGGGCCACAGCAGAAGCGUUCACGUCGCAGCCCCUGUCAGAUUCUGGUGAAUCUGCGAAUUCUGCUGUAUAUCAC | 1.08
50 | GAACAGGCGGCCACAGCAGAAGCGUUCACGUCGCAGCCCCUGUCAGAUUCUGGUGAAUCUGCGAAUUCUGCUGUAUAUCUC | 0.59
51 | UCACAGGGGGCCACAGCAGAAGCGUUCACGUCGCAGCCCCUGUCAGAUUCUGGUGAAUCUGCGAAUUCUGCUGUAUAUCUC | 0.91
52 | CAACAGGGGGCCACAGCAGAAGCGUUCACGUCGCAGCCCCUGUCAGAUUCUGGUGAAUCUGCGAAUUCUGCGGUAUAUCUC | 1
53 | CAACAGGGGGCCACAGCAGAAGCGUUCACGUCGCAGCCCCUGUCAGAUUCUGGUGAAUCUGCGAAUUCUGCCGUAUAUCUC | 0.82
54 | CAACAGGGGGCCACAGCAGAAGCGUUCACGUCGCAGCCCCUGUCAGAUUCUGGUGAAUCUGCGAAUUCUGCAGUAUAUCUC | 0.66
55 | GAACAGGGGGCCACAGCAGAAGCGUUCACGUCGCGGCCCCUGUCAGAUUCUGGUGAAUCUGCGAAUUCUGCUGUAUAUCUC | 1.25
56 | GAACAGGGGGCCACAGCAGAAGCGUCCACGUCGCAGCCCCUGUCAGAUUCUGGUGAAUCUGCGAAUUCUGCUGUAUAUCUC | 0.4
57 | UCACAGGGGGCCACAGCAGAAGCGUUCGCGUCGCAGCCCCUGUCAGAUUCUGGUGAAUCUGCGAAUUCUGCUGUAUAUCUC | 0.51
58 | UCACAGGGGGCCACAGCAGAAGCGUUCACGUCGCAGCCACUGUCAGAUUCUGGUGAAUCUGCGAAUUCUGCUGUAUAUCUC | 0.49
59 | CAACAGGGGGCCACAGCAGAAGCGUUCACGUCGCAGCCCCUGUCAGAUUCUGGUGAAUCUGCGAAUUCAGCUGUAUAUCUC | 0.44
60 | CAACAGGGGGCCACAGCAGAAGCGUUCACGUCGCAGCCCCUGUCAGAUUCUGGUGAAUCUGCGAAUUCCGCUGUAUAUCUC | 0.46
61 | CAACAGGGGGCCACAGCAGAAGCGUUCACGUCGCAGCCCCUGUCAGAUUCUGGUGAAUCUGCGAAUUCUGCUGUAAAUCUC | 0.78
62 | CAACAGGGGGCCACAGCAGAAGCGUUCACGUCGCAGCCCCUGUCAGAUUCUGGUGAAUCUGCGAAUUCUGCUGUACAUCUC | 0.8
63 | CAACAGGGGGCCACAGCAGAAGCGUUCACGUCGCAGCCCCUGUCAGAUUCUGGUGAAUCUGCGAAUGCUGCUGUAUAUCUC | 0.22
64 | CAACAGGGGGCCACAGCAGAAGCGUUCACGUCGCAGCCCCUGUCAGAUUCUGGUGAAUCUGCGAAUACUGCUGUAUAUCUC | 0.4
65 | CAACAGGGGGCCACAGCAGAAGCGUUCACGUCGCAGCCCCUGUCAGAUUCUGGUGAAUCUGCGAAUCCUGCUGUAUAUCUC | 0.26
66 | UCACAGGGGGCCACAGCAGAAGCGUUCACGUCGCGGCCCCUGUCAGAUUCUGGUGAAUCUGCGAAUUCUGCUGUAUAUCUC | 1.24
67 | CAACAGGGGGCCACAGCAGAAGCGUUCACGUCGCAGCCCCUGUCAGAUUCUGGGGAAUCUGCGAAUUCUGCUGUAUAUCUC | 0.67
68 | GAACAGGGGGCCACAGCAGAAGCGUUCACGUCGCAGCCCCUGUCAGACUCUGGUGAAUCUGCGAAUUCUGCUGUAUAUCUC | 0.79
